Data on 1 molecule can be found in patent US7648703.

The target in this test is Ep-CAM antigen (human pan-carcinoma antigen) (human) (UniProt P16422). The test is described as follows: antibody binding to HT29 adenocarcinoma cells after 15 minute incubation; drug-treated against control cells.
Chain of UniProt P16422 (P16422 24-314): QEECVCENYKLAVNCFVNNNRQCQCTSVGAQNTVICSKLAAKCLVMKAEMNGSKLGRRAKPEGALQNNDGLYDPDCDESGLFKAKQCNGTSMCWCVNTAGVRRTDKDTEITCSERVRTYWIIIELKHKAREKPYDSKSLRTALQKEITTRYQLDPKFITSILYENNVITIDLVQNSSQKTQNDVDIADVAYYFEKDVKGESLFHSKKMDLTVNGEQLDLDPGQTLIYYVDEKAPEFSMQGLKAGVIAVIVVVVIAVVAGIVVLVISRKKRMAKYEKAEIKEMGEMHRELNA

B1: Panorex (17-1A mouse monoclonal antibody) (antibody, INN chains, looked up, V domains shown)
VH: QVQLQQSGAELVRPGTSVKVSCKASGYAFTNYLIEWVKQRPGQGLEWIGVINPGSGGTNYNEKFKGKATLTADKSSSTAYMQLSSLTSDDSAVYFCARDGPWFAYWGQGTLVTVSA
VL: NIVMTQSPKSMSMSVGERVTLTCKASENVVTYVSWYQQKPEQSPKLLIYGASNRYTGVPDRFTGSGSATDFTLTISSVQAEDLADYHCGQGYSYPYTFGGGTKLEIK
For B1, the increase in antibody binding (cells treated with Navelbine plus Cisplatin against control cells) is 34% and the increase in antibody binding (cells treated with Taxol against control cells) was 8%.
